Values quoted from earlier work as cited in article PMC5427221.

Target: C3b C3b (Homo sapiens) (UniProt P01024)
Chain of UniProt P01024 (P01024 566-670): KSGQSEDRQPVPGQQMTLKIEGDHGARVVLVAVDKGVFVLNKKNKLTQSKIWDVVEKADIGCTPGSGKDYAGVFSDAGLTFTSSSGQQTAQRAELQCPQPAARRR

Substance: Factor H FH[1-4] (from UniProt P08603)
- Kd: 10 µM
